Results as given in patent US20210107998A1 (Boehringer Ingelheim, published 2021).

Legend:
[1] = target: T1, Recombinant human BAFF trimer (Boehringer Ingelheim Pharmaceuticals, Inc.) (human, UniProt Q9Y275 134-285, limits assumed); experiment: cell-based or functional assay
[2] = target: Recombinant cynomolgus BAFF trimer (Boehringer Ingelheim Pharmaceuticals, Inc.) (cynomolgus, UniProt A0A2K5V2X4 134-285); experiment: cell-based or functional assay
[3] = target: T1, Recombinant human BAFF trimer …; experiment: cell-based or functional assay; remark: listed apart in the source
[4] = target: Recombinant human BAFF 60mer (Boehringer Ingelheim Pharmaceuticals, Inc.) (human, UniProt Q9Y275 134-285, limits assumed); experiment: cell-based or functional assay
[5] = target: membrane-bound human BAFF on fixed CHO-K1 cells (human, UniProt Q9Y275 1-285); experiment: cell-based or functional assay
Recombinant human IL-23 [6] = target: T2, Recombinant human IL-23 (human, UniProt P29460 23-328); experiment: cell-based or functional assay
T2 sequence 1: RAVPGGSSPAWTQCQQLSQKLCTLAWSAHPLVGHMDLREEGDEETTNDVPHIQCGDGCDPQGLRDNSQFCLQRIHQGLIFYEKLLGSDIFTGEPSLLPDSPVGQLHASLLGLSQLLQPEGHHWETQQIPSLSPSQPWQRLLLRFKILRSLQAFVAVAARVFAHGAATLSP
T2 sequence 2: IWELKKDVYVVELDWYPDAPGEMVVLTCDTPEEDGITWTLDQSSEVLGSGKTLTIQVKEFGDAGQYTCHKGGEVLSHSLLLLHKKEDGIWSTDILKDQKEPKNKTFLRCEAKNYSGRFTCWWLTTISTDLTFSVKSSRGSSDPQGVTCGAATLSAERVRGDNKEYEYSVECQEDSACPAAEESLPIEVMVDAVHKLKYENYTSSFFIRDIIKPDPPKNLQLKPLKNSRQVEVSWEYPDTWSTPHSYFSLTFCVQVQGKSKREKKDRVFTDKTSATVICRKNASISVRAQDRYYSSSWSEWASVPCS

cynomolgus IL-23 [7] = target: T3, cynomolgus IL-23 (cynomolgus, UniProt H6WS56 20-189); experiment: cell-based or functional assay
Recombinant human IL-23 [8] = target: T2, Recombinant human IL-23; experiment: cell-based or functional assay; remark: listed apart in the source
human BAFF [9] = target: T4, human BAFF (human, UniProt Q9Y275 134-285, limits assumed); experiment: cell-based or functional assay
cynomolgus IL-23 [10] = target: T3, cynomolgus IL-23; experiment: SPR (ProteOn XPR36), compound captured on goat anti-human IgG Fc, antigen injected
Procedure: (§1) SPR experiments were performed on a ProteOn XPR36 instrument (Bio Rad). A GLM chip was preconditioned with sequential injections of 60 sec of 0.5% SDS, 50 mM NaOH, and 100 mM HCl at a flow rate of 30 μl/min both vertical and horizontal directions.
(§2) The preconditioned GLM chip was then activated by an injection of EDC (76.7 mg/ml) and sulfo-NHS (21.7 mg/ml) mixture with ratio of 1:1 in 6 horizontal channels. Goat-anti-human IgG (GAHA) Fc gamma (Invitrogen) at a concentration of 30 μg/ml in 10 mM, pH 5.0 sodium acetate buffer was immobilized to 8,000 resonance units on the activated GLM chip in 6 horizontal channels. The chip was finally deactivated with 1 M ethanolamine HCl in 6 horizontal channels. The prepared GAHA chip was rotated to vertical direction to capture test compounds, over 5 vertical channels and the last channel was used as a column reference. The captured chip was then rotated again to the horizontal direction for binding. […] The dissociation was allowed for 2 hour. The GAHA surface was regenerated using short pulse injection (18 seconds) of 0.85% phosphoric acid (Bio Rad) at a flow rate of 100 μl/min both horizontal and vertical directions after 10 min association and 2 hr dissociation. The regenerated GAHA was ready for another binding cycle.

human BAFF [11] = target: T4, human BAFF; experiment: as above
Procedure: as §1, §2

cynomolgus BAFF = target: T5, cynomolgus BAFF (cynomolgus, UniProt A0A2K5V2X4 134-285); experiment: as above
T5 construct: construct not described
Procedure: as §1, §2

[12] = target: T6, Linked human IL-23 (Boehringer Ingelheim Pharmaceuticals, Inc.) (human, UniProt P29460 23-328); experiment: as above
T6 sequence 1: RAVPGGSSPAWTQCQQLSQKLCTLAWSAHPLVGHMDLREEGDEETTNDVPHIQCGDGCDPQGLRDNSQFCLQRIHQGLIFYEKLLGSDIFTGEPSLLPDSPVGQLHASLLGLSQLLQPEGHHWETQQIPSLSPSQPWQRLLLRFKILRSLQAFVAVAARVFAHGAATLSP
T6 sequence 2: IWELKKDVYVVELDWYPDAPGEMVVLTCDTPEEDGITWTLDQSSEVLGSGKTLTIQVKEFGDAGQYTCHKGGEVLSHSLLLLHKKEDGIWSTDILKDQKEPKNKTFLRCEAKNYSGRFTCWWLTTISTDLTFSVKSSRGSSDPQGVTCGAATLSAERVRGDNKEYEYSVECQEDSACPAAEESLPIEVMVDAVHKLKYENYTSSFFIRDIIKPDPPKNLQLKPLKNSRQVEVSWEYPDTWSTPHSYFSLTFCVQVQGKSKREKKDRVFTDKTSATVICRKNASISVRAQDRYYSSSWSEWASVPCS
Procedure: as §1, §2

human BAFF [13] = target: T4, human BAFF; experiment: BLI (Octet RED96, streptavidin tips), compound incubated 48 h at 37 C in whole blood vs kinetic buffer
Procedure: (§3) A whole blood interference assay was developed on an Octet RED96 to detect the effects of non-specific binding or off-target binding for compounds in the presence of whole blood (WB). The compound solutions in whole blood and 1× kinetic running buffer (1×kb) were incubated at a temperature of 37° C. for 48 hours. Kinetic measurements for the incubated compound samples were performed with an Octet RED96 equipped with streptavidin (SA) biosensor tips (ForteBio, Menlo Park, Calif.) at 27° C. The ratio of the on-rates/binding signals in buffer and whole blood were reported. A ratio <2 was considered to show no interference.

Recombinant human IL-23 [14] = target: T2, Recombinant human IL-23; experiment: as above
Procedure: as §3

B1: Compound B (bispecific antibody, human IgG4 S228P, kappa)
chain 1: DIQMTQSPSSLSASVGDRVTITCKASRDVAIAVAWYQQKPGKVPKLLIYWASTRHTGVPSRFSGSGSRTDFTLTISSLQPEDVADYFCHQYSSYPFTFGSGTKLEIKGGGSGGGGQVQLVQSGAEVKKPGASVKVSCKASGYSFSTFFIHWVRQAPGQGLEWIGRIDPNSGATKYNEKFESRVTMTRDTSISTAYMELSRLRSDDTAVYYCARGEDLLIRTDALDYWGQGTSVTVSSLGGGSGASTKGPSVFPLAPCSRSTSESTAALGCLVKDYFPEPVTVSWNSGALTSGVHTFPAVLQSSGLYSLSSVVTVPSSSLGTKTYTCNVDHKPSNTKVDKRVESKYGPPCPPCPAPEFLGGPSVFLFPPKPKDTLYITREPEVTCVVVDVSQEDPEVQFNWYVDGVEVHNAKTKPREEQFNSTYRVVSVLTVLHQDWLNGKEYKCKVSNKGLPSSIEKTISKAKGQPREPQVYTLPPSQEEMTKNQVSLTCLVKGFYPSDIAVEWESNGQPENNYKTTPPVLDSDGSFFLYSRLTVDKSRWQEGNVFSCSVMHEALHNHYTQKSLSLSLG
chain 2: DIQMTQSPSSLSASVGDRVSITCKASQNAGIDVAWFQQKPGKAPKLLIYSKSNRYTGVPSRFSGSGSGTDFTLTISSLQPEDFATYYCLQYRSYPRTFGQGTKLEIKGGGSGGGGQVQLVQSGAEVKKPGSSVKVSCKASGYTFTDQTIHWMRQAPGQGLEWIGYIYPRDDSPKYNENFKGKVTITADKSTSTAYMELSSLRSEDTAVYYCAIPDRSGYAWFIYWGQGTLVTVSSLGGGSGRTVAAPSVFIFPPSDEQLKSGTASVVCLLNNFYPREAKVQWKVDNALQSGNSQESVTEQDSKDSTYSLSSTLTLSKADYEKHKVYACEVTHQGLSSPVTKSFNRGEC
notes: Large chain: IL23A(1) VL - BAFF(7) VH - LGGGSG - IgG4-Pro-YTE constant domain; small chain: BAFF(7) VL - IL23A(1) VH - LGGGSG - CL; Tetravalent format
- IC50, NFkB luciferase reporter, human BAFFR-CHO cells [1]: 0.039 nM
- IC90, NFkB luciferase reporter, human BAFFR-CHO cells [1]: 0.256 nM
- IC50 Geomean, NFkB luciferase reporter, human BAFFR-CHO cells [2]: 0.132 nM
- IC90 Geomean, NFkB luciferase reporter, human BAFFR-CHO cells [2]: 0.295 nM
- IC50 Geomean, NFkB luciferase reporter, human TACI-CHO cells [3]: 0.159 nM
- IC90 Geomean, NFkB luciferase reporter, human TACI-CHO cells [3]: 0.51 nM
- IC50, NFkB luciferase reporter, human BAFFR-CHO cells [4]: 0.006 nM
- IC90, NFkB luciferase reporter, human BAFFR-CHO cells [4]: 0.017 nM
- IC50, NFkB luciferase reporter, human BAFFR-CHO cells stimulated with fixed human BAFF CHO-K1 cells [5]: 0.125 nM
- IC90, NFkB luciferase reporter, human BAFFR-CHO cells stimulated with fixed human BAFF CHO-K1 cells [5]: 1.14 nM
- IC50, STAT3-luciferase reporter in DB lymphoblast B cells (Recombinant human IL-23 [6]): 0.161 nM
- IC90, STAT3-luciferase reporter in DB lymphoblast B cells (Recombinant human IL-23 [6]): 1.1 nM
- IC50, IL-23-induced mouse IL-17 release from mouse splenocytes (cynomolgus IL-23 [7]): 0.2 nM
- IC90, IL-23-induced mouse IL-17 release from mouse splenocytes (cynomolgus IL-23 [7]): 1.48 nM
- IC50, IL-23-induced mouse IL-17 release from mouse splenocytes (Recombinant human IL-23 [8]): 0.202 nM
- IC90, IL-23-induced mouse IL-17 release from mouse splenocytes (Recombinant human IL-23 [8]): 1.36 nM
- IC50, 3H-thymidine incorporation, primary human B cells stimulated with anti-IgM and hBAFF (human BAFF [9]): 0.0337 nM
- Kd (cynomolgus IL-23 [10]): < 0.015 nM
- Kd (human BAFF [11]): < 0.015 nM
- Kd (cynomolgus BAFF): < 0.015 nM
- Kd [12]: < 0.015 nM
- Ratio of binding signal in WB/kinetic buffer (human BAFF [13]): 1.2
- Ratio of binding signal in WB/kinetic buffer (Recombinant human IL-23 [14]): 1.5
